Laboratory results from publication PMC4914250.

Assays:
[1] = target: WT p53 full length (His-tagged) (UniProt P04637 1-393); experiment: pull-down (streptavidin beads, Western blot); DBD pull-down: streptavidin beads with biotinylated oligo, 3 h at 4 C; Figure 1A: 50 ng protein; buffer, salt and pH not in the material; ELISA per R&D kit; settings: protein: recombinant; tags: His; label: 5' biotin; annealed to complementary oligo
[2] = target: WT p53 DBD (UniProt P04637 94-293); experiment: as above; settings: protein: recombinant; label: 5' biotin; annealed to complementary oligo
Sequence of WT p53 DBD (P04637 94-293): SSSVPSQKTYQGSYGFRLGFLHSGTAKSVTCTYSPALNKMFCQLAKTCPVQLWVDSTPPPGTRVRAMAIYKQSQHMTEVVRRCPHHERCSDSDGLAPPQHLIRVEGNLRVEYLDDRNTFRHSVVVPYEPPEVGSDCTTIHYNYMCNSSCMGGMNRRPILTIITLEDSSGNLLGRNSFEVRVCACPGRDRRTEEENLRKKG

Sequence of WT p53 full length (His-tagged) (P04637 whole entry): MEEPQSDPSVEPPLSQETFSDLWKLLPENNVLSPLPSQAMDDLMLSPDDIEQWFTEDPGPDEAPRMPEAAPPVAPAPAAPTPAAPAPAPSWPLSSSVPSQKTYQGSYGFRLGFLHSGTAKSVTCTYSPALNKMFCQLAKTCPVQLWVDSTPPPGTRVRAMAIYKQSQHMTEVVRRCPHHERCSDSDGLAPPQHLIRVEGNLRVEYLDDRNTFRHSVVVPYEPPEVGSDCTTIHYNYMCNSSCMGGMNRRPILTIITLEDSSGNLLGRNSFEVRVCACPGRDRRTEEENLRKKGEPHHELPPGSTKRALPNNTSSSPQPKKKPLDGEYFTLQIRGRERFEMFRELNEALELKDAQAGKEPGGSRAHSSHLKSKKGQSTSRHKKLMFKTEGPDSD

B1: p53RE oligo (dsDNA)
DNA 1: CTGCTGAAGCTTCGAATTCCTAGACATGCCCAGACATGTCCTACTGCTGCTGCTGCTGCTGCTGCGAACATGTCCCAACATGTTGCTGCTGCTGCTGCTG
DNA 2: CAGCAGCAGCAGCAGCAACATGTTGGGACATGTTCGCAGCAGCAGCAGCAGCAGCAGTAGGACATGTCTGGGCATGTCTAGGAATTCGAAGCTTCAGCAG
binding result [1]: binds
binding result [2]: binds
